Data on 3 molecules can be found in patent US20180155451A1 (published 2018).

One may read the Kd as the equilibrium constant for the complex coming apart. High values mean weaker binding, low ones tighter binding.

The target of assay [1] is T1, FcγRIIb (human, UniProt P31994 43-217).
T1 construct: extracellular domain; for crystallography expressed with Kifunesine and trimmed with Endo F1; also called FcgRIIb; FcgR2b; not shown: His tag attached to the C terminus
T1 sequence (looked up): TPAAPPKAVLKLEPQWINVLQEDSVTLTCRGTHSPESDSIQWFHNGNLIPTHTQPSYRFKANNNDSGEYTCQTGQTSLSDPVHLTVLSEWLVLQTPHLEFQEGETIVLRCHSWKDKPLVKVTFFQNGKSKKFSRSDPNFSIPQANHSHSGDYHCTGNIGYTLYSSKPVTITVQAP
Description: SPR (Biacore), KD. A general note: SPR reads the build-up and loss of mass on a sensor chip optically.

For assay [2], the target named is T2, FcgRIa (human, UniProt P12314 16-292).
T2 construct: extracellular domain; also called FcγRIa; FcγRI; not shown: C-terminal His tag
T2 sequence (P12314 16-292): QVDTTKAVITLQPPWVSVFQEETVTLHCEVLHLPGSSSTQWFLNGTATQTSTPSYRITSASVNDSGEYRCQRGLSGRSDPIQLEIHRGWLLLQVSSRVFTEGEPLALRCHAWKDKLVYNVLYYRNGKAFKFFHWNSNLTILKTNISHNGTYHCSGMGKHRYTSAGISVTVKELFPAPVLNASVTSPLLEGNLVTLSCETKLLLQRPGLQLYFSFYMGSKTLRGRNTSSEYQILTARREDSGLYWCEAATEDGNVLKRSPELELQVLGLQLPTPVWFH
Description: SPR (Biacore 4000), antibody captured on chip, FcgR as analyte; kd below the limit 5e-5 /s. Here is the method: (§1) The variants described above were assessed for their binding to FcγR according to the method described in Reference Example 8.
(§2) Analysis of interaction between obj ective antibody and the FcγR was carried out using Biacore T100 (GE Healthcare), Biacore T200, Biacore A100, and Biacore 4000. HBS-EP+ (GE Healthcare) was used as the running buffer, and the measurement temperature was set to 25° C. Chips produced by immobilizing the antigen peptide by the amine coupling method to a Series S sensor Chip CM5 (GE Healthcare), chips produced by allowing preliminarily biotinylated antigen peptides to interact with and immobilize onto a Series S Sensor Chip SA (certified) (GE Healthcare), chips produced by immobilizing Protein L (ACTIGEN, BioVision) to Series S Sencor Chip CM5 (GE Healthcare), or chips produced by immobilizing Protein A/G (Thermo Scientific) to Series S Sencor Chip CM5 (GE Healthcare) were used. Antibodies of interest were captured onto these chips, and allowed to interact to each FcγR diluted with running buffer. To regenerate and repeatedly use the chip, the antibodies captured onto the chip were washed off by reacting 10 mM glycine-HCl, pH 1.5.

Assay [3] has as its target T3, FcgRIIIaF (human, UniProt P08637 17-208).
T3 construct: extracellular domain; F158 allotype; also called FcγRIIIa F; not shown: C-terminal His tag
Description: SPR (Biacore), antibody captured on chip, FcgR as analyte. Here is the method: as §1, §2

Assay [4] deals with T4, FcgRIIb (human, UniProt P31994 43-217).
T4 construct: extracellular domain; also called FcγRIIb; CD32B; not shown: C-terminal His tag
T4 sequence (looked up): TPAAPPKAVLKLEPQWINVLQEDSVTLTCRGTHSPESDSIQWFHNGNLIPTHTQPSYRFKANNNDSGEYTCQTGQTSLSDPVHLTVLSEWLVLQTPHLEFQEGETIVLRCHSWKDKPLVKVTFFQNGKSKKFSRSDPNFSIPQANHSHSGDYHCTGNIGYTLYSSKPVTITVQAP
Described as above. Here is the method: as §1, §2

In assay [5] the target is T5, FcgRIIaR (human, UniProt P12318 34-217).
T5 construct: extracellular domain; R131 allotype; also called FcγRIIa R; FcgRIIa type R; not shown: C-terminal His tag
T5 sequence (looked up): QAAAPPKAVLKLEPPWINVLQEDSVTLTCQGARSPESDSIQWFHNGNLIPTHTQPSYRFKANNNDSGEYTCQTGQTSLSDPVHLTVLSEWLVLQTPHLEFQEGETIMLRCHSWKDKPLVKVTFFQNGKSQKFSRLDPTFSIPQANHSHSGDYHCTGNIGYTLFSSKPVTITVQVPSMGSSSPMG
The assay is described as above. Here is the method:
as §1, §2

Assay [6] concerns the target T6, FcgRIIaH (human, UniProt P12318 34-217).
T6 construct: extracellular domain; H131 allotype; also called FcγRIIa H; FcgRIIa type H; not shown: C-terminal His tag
T6 sequence (looked up): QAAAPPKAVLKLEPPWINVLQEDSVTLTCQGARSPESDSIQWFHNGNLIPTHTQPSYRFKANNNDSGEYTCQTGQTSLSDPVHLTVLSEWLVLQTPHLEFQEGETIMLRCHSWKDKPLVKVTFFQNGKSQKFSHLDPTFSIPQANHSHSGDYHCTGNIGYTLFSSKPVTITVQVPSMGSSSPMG
Described as above. Here is the method: as §1, §2

The target in assay [7] is T7, FcgRIIIaV (human, UniProt P08637 17-208).
T7 construct: extracellular domain; V158 allotype; also called FcγRIIIa V; not shown: C-terminal His tag
T7 sequence (P08637 17-208 F176V limits assumed): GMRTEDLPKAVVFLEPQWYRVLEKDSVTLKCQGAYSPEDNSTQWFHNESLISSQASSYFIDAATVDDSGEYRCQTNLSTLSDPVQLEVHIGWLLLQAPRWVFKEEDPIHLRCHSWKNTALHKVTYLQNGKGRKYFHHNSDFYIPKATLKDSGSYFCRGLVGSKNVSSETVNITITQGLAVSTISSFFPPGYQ
The description is as above. Here is the method:
as §1, §2

In assay [8] the target is T3, FcgRIIIaF. Description: SPR (Biacore); KD of H240-Kn120/H240-Hl068/L73-k0 divided by KD of the sample. The procedure:
as §1, §2

Assay [9] addresses T4, FcgRIIb. The assay is described as above. The procedure: as §1, §2
For assay [10], the target named is T5, FcgRIIaR. The description is as above. Here is the method: as §1, §2
The target of assay [11] is T6, FcgRIIaH. Described as above. Here is the method:
as §1, §2

Assay [12] has as its target T7, FcgRIIIaV. The description is as above. Here is the method:
as §1, §2

Bounds are passed on as bounds.

T3 sequence (P08637 17-208): as the sequence (P08637 17-208 F176V limits assumed) above, with V160F counted along it

B1: H240-Kn120/H240-Hl068/L73-k0 (antibody, human IgG1, kappa)
heavy 1: QDQLVQSGAEVKKPGASVKVSCKASGFNIKDTYIQWVRQAPGQGLEWMGRIDPLRKQTKYREKFEGRVTITADTSTNTAYMELSSLRSEDTAVYYCVRSGREFDYWGQGTLVTVSSASTKGPSVFPLAPSSKSTSGGTAALGCLVKDYFPEPVTVSWNSGALTSGVHTFPAVLQSSGLYSLSSVVTVPSSSLGTQTYICNVNHKPSNTKVDKKVEPKSCDKTHTCPPCPAPEYYWGPMVFLFPPKPKDTLMISRTPEVTCVVVDVSDEDPEVKFNWYVDGVEVHNAKTKPREEQYNATYRVVSVLTVLHQDWLNGKEYKCKVSNKDLPAPIEKTISKAKGQPREPQVCTLPPSRDELTKNQVSLWCLVKGFYPSDIAVEWESNGQPENNYKTTPPVLDSDGSFFLYSKLTVDKSRWQQGNVFSCSVMHEALHNHYTQKSLSLSP
heavy 2: QDQLVQSGAEVKKPGASVKVSCKASGFNIKDTYIQWVRQAPGQGLEWMGRIDPLRKQTKYREKFEGRVTITADTSTNTAYMELSSLRSEDTAVYYCVRSGREFDYWGQGTLVTVSSASTKGPSVFPLAPSSKSTSGGTAALGCLVKDYFPEPVTVSWNSGALTSGVHTFPAVLQSSGLYSLSSVVTVPSSSLGTQTYICNVNHKPSNTKVDKKVEPKSCDKTHTCPPCPAPELLGGPSVFLFPPKPKDTLMISRTPEVTCVVVDVSHEEPEVKFNWYVDGVEVHNAKTKPREEQYNSTYRVVSVLTVLHQDWLNGKEYKCKVSNDALPKPIEETISKAKGQPREPQVYTLPPSRCELTKNQVSLSCAVKGFYPSDIAVEWESNGQPENNYKTTPPVLDSDGSFFLVSKLTVDKSRWQQGNVFSCSVMHEALHNHYTQKSLSLSP
light: DIQMTQSPSSLSASVGDRVTITCRASQDIHKYIAWYQQKPGQAPRLLIQYTSTLQPGVPSRFSGSGSGTDYTFTISSLQPEDIATYYCLQYEQLRTFGGGTKVEIKRTVAAPSVFIFPPSDEQLKSGTASVVCLLNNFYPREAKVQWKVDNALQSGNSQESVTEQDSKDSTYSLSSTLTLSKADYEKHKVYACEVTHQGLSSPVTKSFNRGEC
notes: S239M added to H240-Kn067
Take B1: the “fold increase of binding activity over native IgG1” value in [1] is around 50 fold.

B2: H240-Kn193/H240-Hl204/L73-k0 (antibody, human IgG1, kappa)
heavy 1: QDQLVQSGAEVKKPGASVKVSCKASGFNIKDTYIQWVRQAPGQGLEWMGRIDPLRKQTKYREKFEGRVTITADTSTNTAYMELSSLRSEDTAVYYCVRSGREFDYWGQGTLVTVSSASTKGPSVFPLAPSSKSTSGGTAALGCLVKDYFPEPVTVSWNSGALTSGVHTFPAVLQSSGLYSLSSVVTVPSSSLGTQTYICNVNHKPSNTKVDKKVEPKSCDKTHTCPPCPAPEYNWGPMVFLFPPKPKDTLMISRTPEVTCVVVDVSDEDPEVKFNWYVDGVEVHNAKTKPRERQYNATYRVVSVLTVLHQDWLNGKEYKCKVSNKDLPAPIEKTISKAKGQPREPQVCTLPPSRDELTKNQVSLWCLVKGFYPSDIAVEWESNGQPENNYKTTPPVLDSDGSFFLYSKLTVDKSRWQQGNVFSCSVMHEALHNHYTQKSLSLSP
heavy 2: QDQLVQSGAEVKKPGASVKVSCKASGFNIKDTYIQWVRQAPGQGLEWMGRIDPLRKQTKYREKFEGRVTITADTSTNTAYMELSSLRSEDTAVYYCVRSGREFDYWGQGTLVTVSSASTKGPSVFPLAPSSKSTSGGTAALGCLVKDYFPEPVTVSWNSGALTSGVHTFPAVLQSSGLYSLSSVVTVPSSSLGTQTYICNVNHKPSNTKVDKKVEPKSCDKTHTCPPCPAPELLTGPSVFLFPPKPKDTLMISRTPEVTCVVVDVSHEEPEVKFNWYVDGVEVHNAKTKPREEQYNSTYRVVSVLTVLHQDWLNGKEYKCKVSNDALPKPEEETISKAKGQPREPQVYTLPPSRCELTKNQVSLSCAVKGFYPSDIAVEWESNGQPENNYKTTPPVLDSDGSFFLVSKLTVDKSRWQQGNVFSCSVMHEALHNHYTQKSLSLSP
light: DIQMTQSPSSLSASVGDRVTITCRASQDIHKYIAWYQQKPGQAPRLLIQYTSTLQPGVPSRFSGSGSGTDYTFTISSLQPEDIATYYCLQYEQLRTFGGGTKVEIKRTVAAPSVFIFPPSDEQLKSGTASVVCLLNNFYPREAKVQWKVDNALQSGNSQESVTEQDSKDSTYSLSSTLTLSKADYEKHKVYACEVTHQGLSSPVTKSFNRGEC
notes: Heterodimerized anti-epiregulin antibody
With B2, the Kd in assay [2] is below 0.024 nM; in assay [3], 11 nM; in assay [4], 290 nM; in assay [5], 16 nM; in [6], 35 nM; in assay [7], 1.8 nM. In addition, the “Relative KD” value in assay [8] was found to be 0.2; in assay [9], 0.5; in assay [10] it was 1.3; in assay [11], 1.2; in assay [12] it was 0.2.

B3: H240-Kn192/H240-Hl204/L73-k0 (antibody, human IgG1, kappa)
heavy 1: QDQLVQSGAEVKKPGASVKVSCKASGFNIKDTYIQWVRQAPGQGLEWMGRIDPLRKQTKYREKFEGRVTITADTSTNTAYMELSSLRSEDTAVYYCVRSGREFDYWGQGTLVTVSSASTKGPSVFPLAPSSKSTSGGTAALGCLVKDYFPEPVTVSWNSGALTSGVHTFPAVLQSSGLYSLSSVVTVPSSSLGTQTYICNVNHKPSNTKVDKKVEPKSCDKTHTCPPCPAPEYNWGPMVFLFPPKPKDTLMISRTPEVTCVVVDVSDEDPEVKFNWYVDGVEVHNAKTKPREKQYNATYRVVSVLTVLHQDWLNGKEYKCKVSNKDLPAPIEKTISKAKGQPREPQVCTLPPSRDELTKNQVSLWCLVKGFYPSDIAVEWESNGQPENNYKTTPPVLDSDGSFFLYSKLTVDKSRWQQGNVFSCSVMHEALHNHYTQKSLSLSP
heavy 2: QDQLVQSGAEVKKPGASVKVSCKASGFNIKDTYIQWVRQAPGQGLEWMGRIDPLRKQTKYREKFEGRVTITADTSTNTAYMELSSLRSEDTAVYYCVRSGREFDYWGQGTLVTVSSASTKGPSVFPLAPSSKSTSGGTAALGCLVKDYFPEPVTVSWNSGALTSGVHTFPAVLQSSGLYSLSSVVTVPSSSLGTQTYICNVNHKPSNTKVDKKVEPKSCDKTHTCPPCPAPELLTGPSVFLFPPKPKDTLMISRTPEVTCVVVDVSHEEPEVKFNWYVDGVEVHNAKTKPREEQYNSTYRVVSVLTVLHQDWLNGKEYKCKVSNDALPKPEEETISKAKGQPREPQVYTLPPSRCELTKNQVSLSCAVKGFYPSDIAVEWESNGQPENNYKTTPPVLDSDGSFFLVSKLTVDKSRWQQGNVFSCSVMHEALHNHYTQKSLSLSP
light: DIQMTQSPSSLSASVGDRVTITCRASQDIHKYIAWYQQKPGQAPRLLIQYTSTLQPGVPSRFSGSGSGTDYTFTISSLQPEDIATYYCLQYEQLRTFGGGTKVEIKRTVAAPSVFIFPPSDEQLKSGTASVVCLLNNFYPREAKVQWKVDNALQSGNSQESVTEQDSKDSTYSLSSTLTLSKADYEKHKVYACEVTHQGLSSPVTKSFNRGEC
notes: as for B2
For B3, the dissociation constant Kd is below 0.019 nM in assay [2]; 12 nM in assay [3]; 290 nM in [4]; 19 nM in assay [5]; 42 nM in assay [6]; 2.2 nM in assay [7]. Also, the “Relative KD” value in assay [8] was determined as 0.2; in assay [9], 0.5; in assay [10] it was 1.1; in assay [11], 1; in assay [12], 0.2.
